# Laboratory results published in IntAct's records for PubMed 22340593.
# B1: Tumor protein p73 (Homo sapiens), O15350 (parent)
# chain: MAQSTATSPDGGTTFEHLWSSLEPDSTYFDLPQSSRGNNEVVGGTDSSMDVFHLEGMTTSVMAQFNLLSSTMDQMSSRAASASPYTPEHAASVPTHSPYAQPSSTFDTMSPAPVIPSNTDYPGPHHFEVTFQQSSTAKSATWTYSPLLKKLYCQIAKTCPIQIKVSTPPPPGTAIRAMPVYKKAEHVTDVVKRCPNHELGRDFNEGQSAPASHLIRVEGNNLSQYVDDPVTGRQSVVVPYEPPQVGTEFTTILYNFMCNSSCVGGMNRRPILIIITLEMRDGQVLGRRSFEGRICACPGRDRKADEDHYREQQALNESSAKNGAASKRAFKQSPPAVPALGAGVKKRRHGDEDTYYLQVRGRENFEILMKLKESLELMELVPQPLVDSYRQQQQLLQRPSHLQPPSYGPVLSPMNKVHGGMNKLPSVNQLVGQPPPHSSAATPNLGPVGPGMLNNHGHAVPANGEMSSSHSAQSMVSGSHCTPPPPYHADPSLVSFLTGLGCPNCIEYFTSQGLQSIYHLQNLTIEDLGALKIPEQYRMTIWRGLQDLKQGHDYSTAQQLLRSSNAATISIGGSGELQRQRVMEAVHFRVRHTITIPNRGGPGGGPDEWADFGFDLPDCKARKQPIKEEFTEAEIH
# B2: Tumor protein p73 (Homo sapiens), O15350 (parent)
# chain: B1 chain
# partner: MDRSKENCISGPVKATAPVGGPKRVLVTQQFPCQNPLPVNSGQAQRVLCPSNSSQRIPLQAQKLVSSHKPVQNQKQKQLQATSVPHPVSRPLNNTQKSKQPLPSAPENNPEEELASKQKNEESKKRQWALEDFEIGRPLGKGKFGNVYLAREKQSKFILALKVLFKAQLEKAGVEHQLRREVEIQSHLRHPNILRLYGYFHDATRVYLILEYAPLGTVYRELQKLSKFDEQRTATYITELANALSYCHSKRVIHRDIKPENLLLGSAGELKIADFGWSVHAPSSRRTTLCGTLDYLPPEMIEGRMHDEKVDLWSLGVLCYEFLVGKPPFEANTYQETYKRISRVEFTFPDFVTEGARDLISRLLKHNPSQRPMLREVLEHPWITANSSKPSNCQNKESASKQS
# Variants of: B1
# Conditions: with hspa9_human HSPA9, P38646
# hspa9_human HSPA9, P38646, sequence (P38646 whole entry): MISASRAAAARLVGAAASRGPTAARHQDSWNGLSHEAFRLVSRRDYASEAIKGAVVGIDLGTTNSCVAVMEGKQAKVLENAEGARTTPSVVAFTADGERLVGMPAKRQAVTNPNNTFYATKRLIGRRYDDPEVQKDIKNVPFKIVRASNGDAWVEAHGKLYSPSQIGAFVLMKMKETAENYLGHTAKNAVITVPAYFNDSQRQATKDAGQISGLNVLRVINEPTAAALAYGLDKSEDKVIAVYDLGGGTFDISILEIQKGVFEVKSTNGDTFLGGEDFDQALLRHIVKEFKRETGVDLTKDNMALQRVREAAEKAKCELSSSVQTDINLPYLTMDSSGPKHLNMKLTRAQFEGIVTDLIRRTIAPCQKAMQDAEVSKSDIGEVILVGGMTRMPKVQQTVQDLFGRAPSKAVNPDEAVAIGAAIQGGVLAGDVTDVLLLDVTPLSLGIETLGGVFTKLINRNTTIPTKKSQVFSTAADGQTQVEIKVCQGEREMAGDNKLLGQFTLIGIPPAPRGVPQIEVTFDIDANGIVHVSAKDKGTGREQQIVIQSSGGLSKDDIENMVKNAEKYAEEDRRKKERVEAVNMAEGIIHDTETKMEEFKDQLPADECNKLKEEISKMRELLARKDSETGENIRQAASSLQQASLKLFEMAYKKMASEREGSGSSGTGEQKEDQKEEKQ
row,effect of a mutation on the interaction,Variant
1,increasing interaction strength,S235D

# Variants of: B2
# Conditions: with aurka_human AURKA
row,effect of a mutation on the interaction,Variant
1,increasing interaction strength,S235D
